Target: Porcine skeletal actin, pyrene-labeled (porcine) (UniProt P68137)
Experiment: stopped-flow fluorescence

- kon: 0.35 M⁻¹ s⁻¹
Substance: Cardiac myosin from porcine left ventricular tissue (from UniProt P79293 1-1935) (complex)
